From patent publication US20200369773A1 (CELDARA MEDICAL, published 2020)

T1: FITC-recombinant mouse Fn14:human Fc (ENZO ALX-522-036F) (mouse, UniProt Q9CR75 28-80, FITC label (site not stated))
T1 construct: Bought reagent; also called FITC-recombinant Fn14; recombinant Fn14; not shown: human Fc
T1 sequence: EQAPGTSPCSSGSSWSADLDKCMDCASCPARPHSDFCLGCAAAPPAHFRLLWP


target: T1, FITC-recombinant mouse Fn14:human Fc …; assay: flow cytometry; transduced mouse T cells stained with FITC-recombinant mouse Fn14:human Fc
Description: Cell samples that were subjected to transduction with pFB vector containing the anti-Fn14 CAR and T2A+mtrCD19 (4A8H_mt19, 4A8L_mt19, 3G5H_mt19, 3G5L_mt19) construct or just the T2A+mtrCD19 (mt19) construct (from Day 8 of Example 1) were harvested, and 0.25×10⁶ cells in 100 μL of FACS buffer were placed in a 96 well round bottom plate. The plate was spun at 500 ref for 1 min at room temperature, and the supernatant was removed. Cells in each well were resuspended in 25 μL of Blocking buffer and incubated on ice for 10 min.
Cells were then added with 150 μL of FACS buffer and spun at 500 ref for 2 min, and the supernatant was removed. This washing step was repeated once more with 200 μL of FACS buffer.
For the same day FACS analysis, cells in each well were resuspended in 250 μL of FACS buffer and analyzed on flow cytometer. For the next day analysis, cells were diluted in 250 μL of Fixation buffer until analyzed the following day. Cells were stored on ice or 4° C., protected from light, until run on FACS machine.

% anti-Fn14 CAR^+ of CD3^+ cells (staining with FITC-recombinant Fn14) [%]	Binder
10.8	scFvP3G5VHVL-mCD28H-mCD28TM-mCD28CS-mCD3zICS (anti-Fn14 CAR) (receptor, Chimeric antigen receptor on transduced mouse T cells) QVQLQQSGPEVVRPGVSVKISCKGSGYTFTDYGIHWVKQSHAKSLEWIGVISTYNGYTNYNQKFKGKATMTVDKSSSTAYMELARLTSEDSAIYYCARAYYGNLYYAMDYWGQGTSVTVSSGGGGSGGGGSGGGGSDIVLTQSPASLAVSLGQRATISCRANKSVSTSSYSYMHWYQQKPGQPPKLLIKYASNLESGVPARFSGSGSGTDFILNIHPVEEEDAATYYCQHSRELPFTFGSGTKLEIKIKEKHLCHTQSSPKLFWALVVVAGVLFCYGLLVTVALCVIWTNSRRNRLLQSDYMNMTPRRPGLTRKPYQPYAPARDFAAYRPRAKFSRSAETAANLQDPNQLYNELNLGRREEYDVLEKKRARDPEMGGKQQRRRNPQEGVYNALQKDKMAEAYSEIGTKGERRRGKGHDGLYQGLSTATKDTYDALHMQTLAPR
1.6	mouse truncated CD19 (mtrCD19), mock construct without CAR (other, Negative control: mouse T cells transduced with a vector that encodes only mtrCD19 and no CAR; also called mt19; mock transduced cells) RPQKSLLVEVEEGGNVVLPCLPDSSPVSSEKLAWYRGNQSTPFLELSPGSPGLGLHVGSLGILLVIVNVSDHMGGFYLCQKRPPFKDIWQPAWTVNVEDSGEMFRWNASDVRDLDCDLRNRSSGSHRSTSGSQLYVWAKDHPKVWGTKPVCAPRGSSLNQSLINQDLTVAPGSTLWLSCGVPPVPVAKGSISWTHVHPRRPNVSLLSLSLGGEHPVREMWVWGSLLLLPQATALDEGTYYCLRGNLTIERHVKVIARSAVWLWLLRTGGWIVPVVTLVYVIFCMVSLVAFLYCQRAFILRRKRKRMT
11.4	scFvP3G5VLVH-mCD28H-mCD28TM-mCD28CS-mCD3zICS (anti-Fn14 CAR) (receptor, Chimeric antigen receptor on transduced mouse T cells) DIVLTQSPASLAVSLGQRATISCRANKSVSTSSYSYMHWYQQKPGQPPKLLIKYASNLESGVPARFSGSGSGTDFILNIHPVEEEDAATYYCQHSRELPFTFGSGTKLEIKGGGGSGGGGSGGGGSQVQLQQSGPEVVRPGVSVKISCKGSGYTFTDYGIHWVKQSHAKSLEWIGVISTYNGYTNYNQKFKGKATMTVDKSSSTAYMELARLTSEDSAIYYCARAYYGNLYYAMDYWGQGTSVTVSSIKEKHLCHTQSSPKLFWALVVVAGVLFCYGLLVTVALCVIWTNSRRNRLLQSDYMNMTPRRPGLTRKPYQPYAPARDFAAYRPRAKFSRSAETAANLQDPNQLYNELNLGRREEYDVLEKKRARDPEMGGKQQRRRNPQEGVYNALQKDKMAEAYSEIGTKGERRRGKGHDGLYQGLSTATKDTYDALHMQTLAPR
